In patent US20080200393A1, “Method and Composition For Treating Angiogenesis and For Preventing Cancer Progression and Metastasis Comprising a Prostate Secretory Protein (Psp94) Family Member” (Ambrillia Biopharma Inc., priority 2004, published 2008):
Where no end group is shown, it is not given here.

Assays:
[1] = target: T1, VEGFR-2 (Homo sapiens, UniProt P35968); assay: VEGF-induced VEGFR-2 phosphorylation in HUVEC (immunoprecipitation, Western blot); type: cell-based
T1 construct: host or cells: HUVEC
T1 sequence (P35968 20-1356): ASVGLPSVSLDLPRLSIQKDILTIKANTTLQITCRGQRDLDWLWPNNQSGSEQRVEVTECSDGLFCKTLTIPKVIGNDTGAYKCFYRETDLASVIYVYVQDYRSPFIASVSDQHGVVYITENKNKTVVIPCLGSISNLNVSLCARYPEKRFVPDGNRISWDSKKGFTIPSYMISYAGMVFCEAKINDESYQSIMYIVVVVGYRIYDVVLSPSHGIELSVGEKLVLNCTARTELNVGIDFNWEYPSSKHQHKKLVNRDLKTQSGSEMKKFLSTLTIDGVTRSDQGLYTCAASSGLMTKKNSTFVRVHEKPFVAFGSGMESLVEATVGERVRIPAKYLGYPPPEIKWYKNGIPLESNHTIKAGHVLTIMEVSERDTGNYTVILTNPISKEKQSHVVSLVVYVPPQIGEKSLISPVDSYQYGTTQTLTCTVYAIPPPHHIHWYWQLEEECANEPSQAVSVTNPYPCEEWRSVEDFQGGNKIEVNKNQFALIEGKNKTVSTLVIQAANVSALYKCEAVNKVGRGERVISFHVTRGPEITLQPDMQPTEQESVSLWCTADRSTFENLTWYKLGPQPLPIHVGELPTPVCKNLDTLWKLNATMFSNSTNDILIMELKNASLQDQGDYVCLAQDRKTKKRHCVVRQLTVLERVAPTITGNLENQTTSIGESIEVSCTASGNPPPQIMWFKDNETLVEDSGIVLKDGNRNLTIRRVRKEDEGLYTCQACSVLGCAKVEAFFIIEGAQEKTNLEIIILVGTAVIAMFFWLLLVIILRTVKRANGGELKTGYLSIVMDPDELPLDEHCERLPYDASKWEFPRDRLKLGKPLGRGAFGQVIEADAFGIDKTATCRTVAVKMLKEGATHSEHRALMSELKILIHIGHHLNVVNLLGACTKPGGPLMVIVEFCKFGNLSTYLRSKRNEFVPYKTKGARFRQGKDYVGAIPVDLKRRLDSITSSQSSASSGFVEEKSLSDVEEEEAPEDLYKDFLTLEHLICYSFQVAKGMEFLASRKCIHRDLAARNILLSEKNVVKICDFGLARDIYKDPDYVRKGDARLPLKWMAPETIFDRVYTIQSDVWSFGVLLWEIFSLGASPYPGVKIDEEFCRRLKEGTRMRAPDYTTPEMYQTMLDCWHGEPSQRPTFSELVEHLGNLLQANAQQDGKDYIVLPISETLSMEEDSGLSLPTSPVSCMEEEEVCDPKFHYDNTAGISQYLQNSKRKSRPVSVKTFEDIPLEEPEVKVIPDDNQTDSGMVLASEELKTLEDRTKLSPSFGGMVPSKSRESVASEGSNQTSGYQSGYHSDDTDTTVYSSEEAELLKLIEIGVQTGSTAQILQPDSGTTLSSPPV
Method: Immunoprecipitation and immunoblotting procedures. After treatment, cells were washed once with phosphate-buffered saline (PBS) containing 1 mM sodium orthovanadate and were incubated in the same medium for 1 h at 4° C. The cells were solubilized on ice in lysis buffer (150 mM NaCl, 10 mM Tris-HCl, pH 7.4, 1 mM EDTA, 1 mM EGTA, 0.5% Nonidet P-40, 1% Triton X-100) containing 1 mM sodium orthovanadate. The cells were then scraped from the culture dishes and the resulting lysates were clarified by centrifugation at 10,000 g for 10 min; Protein concentrations were determined using the micro bicinchoninic acid method (Pierce). For immunoprecipitation studies, lysates were clarified by a 1 h incubation at 4° C. with a mixture of Protein A/Protein G Sepharose beads. After removal of the Sepharose beads by low-speed centrifugation, identical amounts of protein (200 μg) from each sample were transferred to fresh tubes and incubated in lysis buffer overnight at 4° C. in the presence of 2 μg/ml of specific antibodies. Immunocomplexes were collected by incubating the mixture with 25 μl (50% suspension) of Protein A- (rabbit primary antibody) or Protein G- (mouse primary antibody) Sepharose beads, for 2 h. Nonspecifically-bound material was removed by washing the beads three times in 1 ml of lysis buffer containing 1 mM sodium orthovanadate, and bound material was solubilized in 25 μl of two-fold concentrated Laemmli sample buffer (125 mM Tris-HCl (pH 6.8), 20% glycerol, 4% SDS, 10% β-mercaptoethanol, and 0.00125% bromphenol blue), boiled 5 min, and resolved by SDS-PAGE. […] The immunoreactive bands were quantified by scanning densitometry (Molecular Dynamics).
The multifunctionality of VEGF at the cellular level results from its ability to initiate a diverse, complex and integrated network of signaling pathways via its major receptor, VEGFR-2. […] After each treatment, equal amounts of protein were immunoprecipitated with anti-VEGFR-2 polyclonal antibodies and analysed by Western blotting.

[2] = test system: MMP-9; assay: Gelatin zymography of MatLyLu cell culture media; type: cell-based; details: MatLyLu cells, 500 ug/ml and 1 mg/ml, 50 ug/ml collagen type-I, serum free, 72 hrs
Method: Zymography. Zymography is a technique generally used to analyze the activity of matrix metalloproteinases (MMPs) in biological samples. It involves the electrophoretic separation of proteins under denaturing (Sodium Dodecyl Sulfate (SDS)) but non-reducing conditions through a polyacrylamide gel containing gelatin (for example, 10% gel containing 1 mg/ml gelatin for MMP-9 and MMP-2 assays). The resolved proteins are re-natured by exchanging SDS with a non-ionic detergent such as Triton X-100 and the gel is incubated in an incubation buffer for activation of MMP-2 and MMP-9 (for example at 37° C. for 18 hrs). The gel is stained with Coomassie blue and the MMP-2 and MMP-9 bands may be visualized as clear bands against a blue background (i.e., the MMPs degrade the gelatin and are visualized as clear bands; pro MMP-2 is 68 kDa and pro-MMP-9 is 92 kDa). These bands can be quantified using densitometry. For example, prior to stimulation, quiescent HUVEC were serum-starved for 16 h in the presence or absence of PCK3145 or PD98059 and then stimulated with VEGF. […] Gelatinolytic activity was detected as unstained bands on a blue background. […]
The media were collected after 72 hours of exposure to the PCK3145 derivative and subjected to gelatin zymography. […] The band intensities were determined using the Image Quant software (version 5.0) from molecular Dynamics. […]

phosphorylation of VEGFR-2 induced by VEGF, dose dependence [1]: dose-dependent | phosphorylation of VEGFR-2 induced by VEGF ([1]; 300 μg/ml, 24 h): inhibited
Sequence: EWQTDNCETCTCYET (cysteine pairing not given here) [PCK3145 derivative, PCK3145 derivative with acetylaminomethyl groups on the three cysteines]
MMP-9 secreted in the cell culture media (zymography) [2]: dose-dependent reduction
